± gives the uncertainty stated by the source.
B1: Apoptosis-associated speck-like protein containing a CARD, residues 114 to 194; numbered along this chain, Q9ULZ3 (parent)
chain: FIDQHRAALIARVTNVEWLLDALYGKVLTDEQYQAVRAEPTNPSKMRKLFSFTPAWNWTCKDLLLQALRESQSYLVEDLER

Variants of: B1
Test: abundance fitness (aPCA) (normalised: wild type 0, dead -1); higher = more abundant; growth selection in yeast, the domain comes from the species named
Conditions: Homo sapiens

E70V and E70S are within error of each other in abundance fitness: -0.211 ± 0.059 for the first, -0.265 ± 0.067 for the second.

Compared with E70R, E70P is lower in abundance fitness: -0.343 ± 0.061 for the first, -0.542 ± 0.12 for the second.

P54D and P54Y are within error of each other in abundance fitness: 0.132 ± 0.094 for the first, -0.166 ± 0.21 for the second.

Going from P54M to P54Q, the abundance fitness rises from -0.292 ± 0.11 to -0.064 ± 0.11.

Compared with P54H, P54A is higher in abundance fitness: -0.196 ± 0.16 for the first, 0.045 ± 0.052 for the second.

F52I and F52M are within error of each other in abundance fitness: -0.53 ± 0.19 for the first, -0.454 ± 0.24 for the second.

F52N and V13Q are within error of each other in abundance fitness: -0.836 ± 0.45 for the first, -0.775 ± 0.14 for the second.

V13S and V13Y are within error of each other in abundance fitness: -0.535 ± 0.067 for the first, -0.729 ± 0.24 for the second.

L68P and L68V are within error of each other in abundance fitness: -0.569 ± 0.14 for the first, -0.527 ± 0.078 for the second.

L68C and L68Y are within error of each other in abundance fitness: -0.688 ± 0.21 for the first, -0.777 ± 0.24 for the second.

L68M and L68H are within error of each other in abundance fitness: -0.449 ± 0.18 for the first, -0.334 ± 0.16 for the second.

L68A and L68G are within error of each other in abundance fitness: -0.733 ± 0.14 for the first, -0.764 ± 0.1 for the second.

L68F and S51C are within error of each other in abundance fitness: -0.477 ± 0.17 for the first, -0.429 ± 0.12 for the second.

Compared with S51R, S51G is higher in abundance fitness: -0.839 ± 0.083 for the first, -0.587 ± 0.057 for the second.

First: C60P
Second: C60W
The abundance fitness of the first is lower: -0.625 ± 0.11 for the first, -0.238 ± 0.071 for the second.

Going from C60F to L49F, the abundance fitness falls from -0.162 ± 0.058 to -0.811 ± 0.37.

L49V and L49P are within error of each other in abundance fitness: -0.837 ± 0.089 for the first, -0.73 ± 0.12 for the second.

L49S and L49A are within error of each other in abundance fitness: -0.798 ± 0.1 for the first, -0.93 ± 0.11 for the second.

Going from L64M to L64Q, the abundance fitness falls from 0.163 ± 0.075 to -0.354 ± 0.19.

Going from L64G to T53H, the abundance fitness rises from -0.695 ± 0.076 to -0.394 ± 0.16.

T53M and T53E are within error of each other in abundance fitness: 0.015 ± 0.079 for the first, -0.126 ± 0.068 for the second.

Compared with T53K, Q4T is higher in abundance fitness: -0.957 ± 0.27 for the first, 0.117 ± 0.07 for the second.

Going from Q4A to Q4G, the abundance fitness falls from -0.358 ± 0.064 to -0.685 ± 0.081.

Q4K and A22N are within error of each other in abundance fitness: -0.111 ± 0.074 for the first, -0.08 ± 0.16 for the second.

Going from A22R to A22W, the abundance fitness falls from 0.094 ± 0.04 to -0.183 ± 0.06.

Compared with A22Q, A22L is lower in abundance fitness: 0.063 ± 0.062 for the first, -0.135 ± 0.057 for the second.

Going from L19R to L19W, the abundance fitness rises from -0.906 ± 0.12 to -0.643 ± 0.11.

I10M and I10Y are within error of each other in abundance fitness: -0.489 ± 0.11 for the first, -0.54 ± 0.2 for the second.

I10R and I10H are within error of each other in abundance fitness: -0.631 ± 0.064 for the first, -0.769 ± 0.27 for the second.

I10D and E39V are within error of each other in abundance fitness: -0.658 ± 0.15 for the first, -0.815 ± 0.097 for the second.

Going from E39Y to E39M, the abundance fitness rises from -0.49 ± 0.18 to -0.129 ± 0.1.

Going from E39C to E39F, the abundance fitness falls from -0.088 ± 0.074 to -0.714 ± 0.13.

Compared with E39Q, E39S is lower in abundance fitness: -0.293 ± 0.11 for the first, -0.842 ± 0.11 for the second.

E39L and E31S are within error of each other in abundance fitness: -0.303 ± 0.06 for the first, -0.263 ± 0.053 for the second.

Going from E31T to E31D, the abundance fitness rises from -0.465 ± 0.096 to -0.161 ± 0.12.

Compared with E31R, E31W is lower in abundance fitness: -0.238 ± 0.051 for the first, -0.463 ± 0.1 for the second.

First: E31P
Second: E31L
The abundance fitness of the first is lower: -0.735 ± 0.12 for the first, -0.461 ± 0.072 for the second.

N42C and N42R are within error of each other in abundance fitness: -0.616 ± 0.1 for the first, -0.562 ± 0.057 for the second.

N42Q and N42F are within error of each other in abundance fitness: -0.488 ± 0.11 for the first, -0.372 ± 0.14 for the second.

First: D21H
Second: D21R
The abundance fitness of the first is higher: -0.162 ± 0.073 for the first, -0.33 ± 0.04 for the second.

First: D21E
Second: D21T
The abundance fitness of the first is higher: -0.091 ± 0.069 for the first, -0.313 ± 0.07 for the second.

In the case of D21K, the abundance fitness is reported as -0.287 ± 0.11.

— the Human Domainome abundance scans (Beltran et al. 2025)
